Results as given in IntAct's records for PubMed 12655004.

B1: U3 small nucleolar ribonucleoprotein protein IMP4 (Homo sapiens), Q96G21 (parent)
chain: MLRREARLRREYLYRKAREEAQRSAQERKERLRRALEENRLIPTELRREALALQGSLEFDDAGGEGVTSHVDDEYRWAGVEDPKVMITTSRDPSSRLKMFAKELKLVFPGAQRMNRGRHEVGALVRACKANGVTDLLVVHEHRGTPVGLIVSHLPFGPTAYFTLCNVVMRHDIPDLGTMSEAKPHLITHGFSSRLGKRVSDILRYLFPVPKDDSHRVITFANQDDYISFRHHVYKKTDHRNVELTEVGPRFELKLYMIRLGTLEQEATADVEWRWHPYTNTARKRVFLSTE
partner: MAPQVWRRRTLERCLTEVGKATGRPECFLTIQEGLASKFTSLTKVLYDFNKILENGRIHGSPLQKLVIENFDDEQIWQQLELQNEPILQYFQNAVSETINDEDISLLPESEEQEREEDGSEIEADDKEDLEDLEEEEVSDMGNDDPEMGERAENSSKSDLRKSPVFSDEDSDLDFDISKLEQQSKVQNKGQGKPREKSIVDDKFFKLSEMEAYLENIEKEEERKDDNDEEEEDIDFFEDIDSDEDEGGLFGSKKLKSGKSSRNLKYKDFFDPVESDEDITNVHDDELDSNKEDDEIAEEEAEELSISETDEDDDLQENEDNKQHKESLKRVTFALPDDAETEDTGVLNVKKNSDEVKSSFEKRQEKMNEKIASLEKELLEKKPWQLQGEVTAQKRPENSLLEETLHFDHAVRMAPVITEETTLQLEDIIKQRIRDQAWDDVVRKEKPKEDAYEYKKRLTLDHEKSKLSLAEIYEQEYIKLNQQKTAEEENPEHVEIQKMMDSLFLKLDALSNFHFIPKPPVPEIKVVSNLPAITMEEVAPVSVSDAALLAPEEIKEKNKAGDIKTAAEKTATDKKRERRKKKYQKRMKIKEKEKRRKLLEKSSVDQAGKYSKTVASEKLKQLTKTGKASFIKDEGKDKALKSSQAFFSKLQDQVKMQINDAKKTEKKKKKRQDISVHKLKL

Variants of: B1
Conditions: with mpp10_human MPHOSPH10, O00566
For MLRREARLRREYLYRKAREEAQRSAQERKERLRRALEENRLIPTELRREALALQGSLEFDDAGGEGVTSHVDDEYRWAGVEDPKVMITTSRDPSSRLKMFAKELKLVFPGAQRMNRGRHEVGALVRACKANGVTDLLVVHEHRGTPVGLIVSHLPFGPAAYATLCNVVMRHDIPDLGTMSEAKPHLITHGFSSRLGKRVSDILRYLFPVPKDDSHRVITFANQDDYISFRHHVYKKTDHRNVELTEVGPRFELKLYMIRLGTLEQEATADVEWRWHPYTNTARKRVFLSTE [T159A;F162A], the “effect of a mutation on the interaction” value was “disrupting interaction strength”.
MLRREARLRREYLYRKAREEAQRSAQERKERLRRALEENRLIPTELRREALALQGSLEFDDAGGEGVTSHVDDEYRWAGVEDPKVMITTSRDPSSRLKMFAKELKLVFPGAQRMNRGRHEVGALVRACKANGVTDLLVVHEHRGTPVGLIVSHLPFGPTAYFTLCNVVMRHDIPDLGTMSEAKPHLITHGFSSRLGKRVSDILRYLFPVPKDDSHRVITFANQDDYISFRHHVYKKTDHRNVELTAVGPAFELKLYMIRLGTLEQEATADVEWRWHPYTNTARKRVFLSTE [E246A;R250A] was tested, and the “effect of a mutation on the interaction” value was “disrupting interaction strength”.
